Experimental data taken from patent publication US20220332804A1 (CSL INNOVATION, published 2022).

Columns and labels:
Experiment in all cases: SPR, antibody captured, C2 as analyte;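 also: biacore SPR at 37 °C, anti-C2 mAbs captured via goat anti-human IgG on CM5 chips, double-referenced sensorgrams fit to a 1:1 kinetic or steady-state model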
[1] = target: T1, human C2 T317A (human, UniProt P06681 21-752)
T1 sequence: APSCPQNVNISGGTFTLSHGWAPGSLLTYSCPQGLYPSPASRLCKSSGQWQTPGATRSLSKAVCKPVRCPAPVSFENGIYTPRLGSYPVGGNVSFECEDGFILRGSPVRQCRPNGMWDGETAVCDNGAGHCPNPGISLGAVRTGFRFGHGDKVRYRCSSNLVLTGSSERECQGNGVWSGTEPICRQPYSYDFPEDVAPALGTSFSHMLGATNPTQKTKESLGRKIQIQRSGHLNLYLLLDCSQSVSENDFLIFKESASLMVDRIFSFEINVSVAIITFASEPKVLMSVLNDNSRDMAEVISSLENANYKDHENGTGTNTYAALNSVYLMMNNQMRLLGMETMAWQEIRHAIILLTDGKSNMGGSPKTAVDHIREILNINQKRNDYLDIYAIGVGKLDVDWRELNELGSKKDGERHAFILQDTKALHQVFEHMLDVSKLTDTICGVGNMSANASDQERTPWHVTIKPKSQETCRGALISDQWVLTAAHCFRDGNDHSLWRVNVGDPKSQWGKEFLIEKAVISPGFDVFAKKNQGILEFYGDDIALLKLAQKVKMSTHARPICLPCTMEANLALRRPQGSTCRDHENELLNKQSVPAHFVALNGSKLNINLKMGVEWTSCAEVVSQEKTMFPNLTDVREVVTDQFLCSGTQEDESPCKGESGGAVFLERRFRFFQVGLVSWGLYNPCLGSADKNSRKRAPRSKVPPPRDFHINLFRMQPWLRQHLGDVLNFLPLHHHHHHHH

[2] = target: T2, human C2 G466A (human, UniProt P06681 21-752)
T2 sequence: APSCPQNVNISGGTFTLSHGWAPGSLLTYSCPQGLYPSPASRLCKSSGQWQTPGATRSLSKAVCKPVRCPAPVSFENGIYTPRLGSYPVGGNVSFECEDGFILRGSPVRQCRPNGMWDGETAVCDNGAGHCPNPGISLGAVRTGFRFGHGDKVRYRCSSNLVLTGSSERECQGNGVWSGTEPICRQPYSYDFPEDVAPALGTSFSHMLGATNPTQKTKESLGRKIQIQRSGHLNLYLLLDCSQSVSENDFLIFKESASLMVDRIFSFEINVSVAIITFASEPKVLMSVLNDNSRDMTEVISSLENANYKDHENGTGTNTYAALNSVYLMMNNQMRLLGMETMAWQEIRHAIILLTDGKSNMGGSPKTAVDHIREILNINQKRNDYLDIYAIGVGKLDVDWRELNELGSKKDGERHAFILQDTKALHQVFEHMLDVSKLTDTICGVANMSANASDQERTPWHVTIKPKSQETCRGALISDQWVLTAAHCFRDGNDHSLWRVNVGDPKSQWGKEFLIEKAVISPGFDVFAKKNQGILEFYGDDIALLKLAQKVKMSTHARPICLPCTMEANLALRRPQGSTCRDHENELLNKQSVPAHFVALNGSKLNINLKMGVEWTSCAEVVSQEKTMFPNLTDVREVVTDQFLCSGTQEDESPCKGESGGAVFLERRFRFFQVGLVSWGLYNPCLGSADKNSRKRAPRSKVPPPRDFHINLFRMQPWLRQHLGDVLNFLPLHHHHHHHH

[3] = target: T3, human C2 T442A (human, UniProt P06681 21-752)
T3 sequence: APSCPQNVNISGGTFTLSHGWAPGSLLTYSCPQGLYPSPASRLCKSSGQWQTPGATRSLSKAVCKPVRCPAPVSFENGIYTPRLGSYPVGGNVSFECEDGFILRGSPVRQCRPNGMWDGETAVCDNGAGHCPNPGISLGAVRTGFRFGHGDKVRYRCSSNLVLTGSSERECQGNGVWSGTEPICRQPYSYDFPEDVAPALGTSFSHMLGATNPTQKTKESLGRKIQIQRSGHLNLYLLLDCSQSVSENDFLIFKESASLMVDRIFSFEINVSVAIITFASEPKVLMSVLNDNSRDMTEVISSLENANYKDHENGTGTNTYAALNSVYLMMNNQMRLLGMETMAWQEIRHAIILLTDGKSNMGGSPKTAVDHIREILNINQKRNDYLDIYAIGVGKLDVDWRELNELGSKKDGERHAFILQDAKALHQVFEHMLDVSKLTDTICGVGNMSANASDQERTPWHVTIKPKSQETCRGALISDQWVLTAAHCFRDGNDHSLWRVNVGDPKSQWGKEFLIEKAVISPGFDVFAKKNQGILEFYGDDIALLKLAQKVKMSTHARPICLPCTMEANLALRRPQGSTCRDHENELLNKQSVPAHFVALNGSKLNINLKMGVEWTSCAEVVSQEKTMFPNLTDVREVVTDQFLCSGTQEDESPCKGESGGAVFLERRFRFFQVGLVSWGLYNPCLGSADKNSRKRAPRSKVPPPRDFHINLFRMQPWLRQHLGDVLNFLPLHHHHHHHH

[4] = target: T4, human C2 K487A (human, UniProt P06681 21-752)
T4 sequence: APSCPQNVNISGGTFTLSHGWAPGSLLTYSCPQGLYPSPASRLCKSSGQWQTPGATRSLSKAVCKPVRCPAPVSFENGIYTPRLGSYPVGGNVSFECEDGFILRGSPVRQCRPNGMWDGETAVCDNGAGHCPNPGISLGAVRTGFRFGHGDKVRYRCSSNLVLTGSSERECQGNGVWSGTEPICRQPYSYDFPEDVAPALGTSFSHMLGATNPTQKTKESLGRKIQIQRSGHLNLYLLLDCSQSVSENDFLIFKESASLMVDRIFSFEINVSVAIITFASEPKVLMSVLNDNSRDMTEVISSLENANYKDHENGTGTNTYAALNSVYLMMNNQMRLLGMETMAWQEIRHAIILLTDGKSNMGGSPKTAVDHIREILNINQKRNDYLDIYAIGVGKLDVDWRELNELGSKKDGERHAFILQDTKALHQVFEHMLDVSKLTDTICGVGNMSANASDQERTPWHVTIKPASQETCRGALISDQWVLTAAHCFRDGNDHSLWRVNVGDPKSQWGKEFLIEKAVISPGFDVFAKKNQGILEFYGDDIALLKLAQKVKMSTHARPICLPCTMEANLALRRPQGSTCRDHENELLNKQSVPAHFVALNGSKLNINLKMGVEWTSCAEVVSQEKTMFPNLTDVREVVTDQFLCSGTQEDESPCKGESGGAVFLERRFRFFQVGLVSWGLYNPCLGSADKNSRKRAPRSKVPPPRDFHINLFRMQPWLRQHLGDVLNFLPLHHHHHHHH

B1: RF16-226 (antibody, human IgG4 S228P, lambda)
heavy: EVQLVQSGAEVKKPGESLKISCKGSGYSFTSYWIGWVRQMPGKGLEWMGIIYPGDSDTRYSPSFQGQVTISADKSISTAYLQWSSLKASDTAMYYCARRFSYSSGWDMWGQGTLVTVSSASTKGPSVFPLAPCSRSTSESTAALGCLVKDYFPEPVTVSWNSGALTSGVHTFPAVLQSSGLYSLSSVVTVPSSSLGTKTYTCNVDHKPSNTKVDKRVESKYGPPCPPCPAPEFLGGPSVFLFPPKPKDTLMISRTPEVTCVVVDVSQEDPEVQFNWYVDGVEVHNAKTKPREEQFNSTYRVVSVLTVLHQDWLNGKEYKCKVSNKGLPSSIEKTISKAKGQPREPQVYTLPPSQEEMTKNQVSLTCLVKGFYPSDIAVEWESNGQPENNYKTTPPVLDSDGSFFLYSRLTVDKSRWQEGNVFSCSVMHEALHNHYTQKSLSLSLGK
light: SYELTQPPSVSVSPGQTARITCSGDALTSKYVAWYQQKSGLAPLLVIYEDTRRPSGIPAKFSGSSSGSVATLTISGAHGDDEADYYCYSTDASGHQRVFGGGTKLTVLSQPKAAPSVTLFPPSSEELQANKATLVCLISDFYPGAVTVAWKADGSPVKAGVETTKPSKQSNNKYAASSYLSLTPEQWKSHRSYSCQVTHEGSTVEKTVAPTECS
notes: pH-dependent anti-C2 antibody from a phage display library; also called WT
In the case of B1, the Kd [1] is reported as 9 nM, the Kd [2] is reported as 32.4 nM and the Kd [3] is reported as 23.7 nM. The Kd [4] was 93 nM.
